pKd: −log10 of the molar value.
What follows are substances tested against recombinant human Osteolectin (human) (UniProt Q9Y240) (assay: ELISA; microtiter well binding assay; plates coated with 10 nM recombinant human Osteolectin, Pro-Collagen 1α or BSA overnight at 4°C, blocked with 10 mg/ml BSA; 6xHis tagged integrins in TBS (50 mM Tris-Cl pH 7.5, 150 mM NaCl) with 1 mM MnCl2; bound integrin detected with anti-His tag antibody and HRP secondary, OD 450 nm).
recombinant human Osteolectin (human), sequence (Q9Y240 22-323): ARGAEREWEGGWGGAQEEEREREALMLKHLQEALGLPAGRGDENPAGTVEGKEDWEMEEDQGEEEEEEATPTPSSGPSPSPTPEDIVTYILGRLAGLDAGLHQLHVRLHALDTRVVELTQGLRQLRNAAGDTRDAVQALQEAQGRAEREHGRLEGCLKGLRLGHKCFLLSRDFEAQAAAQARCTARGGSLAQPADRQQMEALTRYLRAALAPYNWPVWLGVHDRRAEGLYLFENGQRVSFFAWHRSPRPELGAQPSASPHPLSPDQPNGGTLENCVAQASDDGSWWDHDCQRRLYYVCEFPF

Row | pKd | Substance
1 | < 7.00 | recombinant human integrin αIIbβ3 (from UniProt P08514 32-1039; P05106 27-718) (complex)
2 | < 7.00 | recombinant human integrin αVβ1 (from UniProt P06756 31-1048; P05556 21-728) (complex)
3 | < 7.00 | recombinant human integrin αVβ3 (from UniProt P06756 31-1048; P05106 27-718) (complex)
